For 2 proteins, Km, kcat and kcat/Km results are on record in PMC6437863, “Identification and functional characterization of three new terpene synthase genes involved in chemical defense and abiotic stresses in Santalum album” (BMC Plant Biology, 2019).

Common to all, as to experiment: malachite green phosphate release after HCl stop, Michaelis-Menten fit
What all share (assay type): biochemical, Santalum album
Holding throughout (conditions): 10 mM Mg2+, 25 mM HEPES, 30°C, 10 min

Substrate in series [1]: CC(C)=CCC/C(C)=C/CC/C(C)=C/CO[P@@](=O)(O)OP(=O)(O)O
The text has this: (§1) malachite green phosphate release after HCl stop, Michaelis-Menten fit on SaTPS2

Substrate in series [2]: CC(C)=CCC/C(C)=C/COP(=O)(O)OP(=O)(O)O
Text: as §1

Substrate in series [3]: CC(C)=CCC/C(C)=C/CC/C(C)=C/CO[P@@](=O)(O)OP(=O)(O)O
The text has this: (§2) malachite green phosphate release after HCl stop, Michaelis-Menten fit on SaTPS3
The source holds these as a separate data set.

Substrate in series [4]: CC(C)=CCC/C(C)=C/COP(=O)(O)OP(=O)(O)O
Text: as §2
This is another data set of the same source.

B1: SaTPS2 (Santalum album) (protein)
chain: MDSATLKVLCDNDANVKIEKNPSGNRRSANYEPSIWNYDFLQSLDSCYNIVEEKHLKLAEKLKGEVKSIIKAPMEPLAKLELVDVVQRLGLKHLFETEIKEALFTVYKDGSDAWWLGHLYATSLRFRLLRQAGLFIPQDVFEIFKSATGEFDMKLRDNIEGLLSLYEASFLGWKGENILDEAKAFTTEYLKNAWENIPQKWLAIRVKHALDLPLHWRVPRFEARWFIDAYEREENINPTLLKLAKLDFNMVQSIHQRELGKLARWWVSTGLDKLSFARNNLMQSYMYGTAVTSDPQFKLARETIVKTGSLITIVDDVYDVFGSIDELELYTNFVDRWNCTEVDELPNTIKMIFLAMFNTANEIGFQIQTERGFNGIPALSKAWDDLCKSYIKEAKWYHGKHKPTLQEYLGNAVVSVGFPLLMTTGYVAIADSEGALDKIDRIPDLVRYACLLNRLVNDLATSSDELARGDTLKSIECYMNQTGASEEIAREHIKGLIEDTWKTLNECSFDDSQFGEPFVSFNLNSVRGSHFFYQHGDGYGVTNSWTKDDLMSILINPISVDDES
notes: full-length ORF, 6His-tagged, pET-28a, E. coli Rosetta 2 (DE3), Ni-NTA purified; no plastid transit peptide; SaTPS1 to 3 span 564 to 604 residues
As for B1, in series [1], the Michaelis constant (Km) is 12.15 ± 1.32 µM, the turnover number (kcat) turned out to be 0.2 ± 0.008 s⁻¹ and the kcat/Km was 16400 M⁻¹ s⁻¹. Moreover, in series [2], the Michaelis constant (Km) is 12.27 ± 1.32 µM, the turnover number (kcat) worked out at 0.189 ± 0.007 s⁻¹ and the kcat/Km worked out at 15400 M⁻¹ s⁻¹.

B2: SaTPS3 (Santalum album) (protein)
chain: MESFVFLKSATSNANNSVKVDNRRSANYQSSVWDYNFLRLLGTTYTCCDTMEEEHVRIAEKLKEEVKSLIMGSMGPLANLEFIDAVQRLGLKYQFETEIKEALFAIYKDSNEEWWANDLHATALRFRLLRRNLLFVSQDVFERFKDKKTHDFSGELCEDVKGILSLYEACFLGWDGERVLDKARIFTTTHLNAMNRSTVSDGGSLDKKVKHALELPLHWRAPRVEARWFIDVYEQDPNMNLALLKLAKLDFNMVQSIHQKEVGELSRWWVRTGLDKLSFARNGLMQNYMYCCAVTFEPQFAHVREALTKIGSVLTATDDLYDVYGSLEELELFTSFIDRWDIKEIDELPRDIRLIFLAMYNLSNEIGFDILRDRDFNGVPYVAKMLGDVCSAYLKEARWYHGGYKPRMEEYLDNGLVSIGMLPLLAVAYMLTTDNLSKETVDHVAAAAPLVRYCSLLLRMIDDLGTSSDELRRGDTLKSVECYMNQAGASEEIAREHIEELVRNTWKKMNQCCFGDGQSSFADPFLSFTLNSVRGAHFFYQFGDGFGVTESWTKDTVLSVLFQPIPLDED
notes: as for B1
For the protein B2, in series [3], the Michaelis-Menten constant (Km) turned out to be 16.29 ± 1.48 µM, the kcat stood at 0.171 ± 0.006 s⁻¹ and the specificity constant (kcat/Km) came out at 10500 M⁻¹ s⁻¹. Besides, in series [4], the Km was found to be 14.38 ± 1.20 µM, the kcat was found to be 0.257 ± 0.008 s⁻¹ and the kcat/Km was 17900 M⁻¹ s⁻¹.
